Measurements taken from patent US9969998B2, “Compositions of adenosine deaminase-2 (ADA2), variants thereof and methods of using same” (Halozyme, Inc., priority 2014, dated 2018).
Like-named read-outs stand apart in the source and are kept apart here.

Legend:
[1] = molecular target: T1, ADA2 (Homo sapiens, UniProt Q9NZK5); conditions: cited from earlier work
T1 sequence (Q9NZK5 30-511): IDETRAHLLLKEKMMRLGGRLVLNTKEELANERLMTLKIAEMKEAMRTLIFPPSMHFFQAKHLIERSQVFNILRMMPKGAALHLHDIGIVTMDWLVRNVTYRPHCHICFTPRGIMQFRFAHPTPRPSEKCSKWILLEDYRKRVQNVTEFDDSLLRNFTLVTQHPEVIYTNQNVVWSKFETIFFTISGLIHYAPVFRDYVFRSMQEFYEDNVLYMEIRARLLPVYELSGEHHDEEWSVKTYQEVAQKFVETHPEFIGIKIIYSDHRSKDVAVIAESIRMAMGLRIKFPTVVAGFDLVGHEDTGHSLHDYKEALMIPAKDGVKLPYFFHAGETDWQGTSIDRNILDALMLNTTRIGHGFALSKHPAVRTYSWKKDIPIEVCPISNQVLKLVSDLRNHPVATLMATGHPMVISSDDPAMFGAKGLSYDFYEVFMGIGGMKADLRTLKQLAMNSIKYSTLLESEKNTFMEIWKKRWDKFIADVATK

[2] = molecular target: T2, ADA1 (Homo sapiens, UniProt P00813); conditions: cited from earlier work
T2 sequence (P00813 1-363): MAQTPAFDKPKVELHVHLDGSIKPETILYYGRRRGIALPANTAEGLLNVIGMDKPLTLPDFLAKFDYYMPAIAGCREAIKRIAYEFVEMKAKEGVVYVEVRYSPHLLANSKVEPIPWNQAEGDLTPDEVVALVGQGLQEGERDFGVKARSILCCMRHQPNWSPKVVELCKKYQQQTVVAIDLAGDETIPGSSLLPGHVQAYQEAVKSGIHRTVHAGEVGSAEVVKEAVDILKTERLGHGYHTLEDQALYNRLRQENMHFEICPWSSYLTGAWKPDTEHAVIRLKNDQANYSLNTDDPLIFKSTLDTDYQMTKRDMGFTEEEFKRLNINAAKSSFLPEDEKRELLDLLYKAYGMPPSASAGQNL

[3] = Heparin binding ELISA (heparin coated microtiter plate); conditions: for Average OD450, heparin binding ELISA: 3 μM protein
Summary of the method: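 Plates coated with 200 μg/mL heparin in Na2CO3 buffer pH 9.6 overnight at 4° C, then milk-blocked. FLAG-tagged rHuADA2 variants added at 3 μM for 2 h at room temperature. Bound protein detected with HRP-anti-FLAG and TMB, read as OD450.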

[4] = Heparin binding capture ELISA (biotin-heparin on streptavidin plate); conditions: PEGylated and non-PEGylated forms (Table 22)
Procedure: Heparin binding of PEGylated rHuADA2 or variants was assessed by capture ELISA. Binding of rHuADA1 was assessed as a negative control. 100 μL of 0.2 mg/mL biotin-heparin (Sigma-Aldrich, St. Louis, Mo.; Cat No. B9806-10MG) was added to a streptavidin coated 96-well plate (Thermo Fisher Scientific, Rockford, Ill.; Cat. No. 15520), and incubated at room temperature for 1 hour. The plate was washed 6 times with PBS. Then, 150 μL of […] rHuADA2 was added to the heparin coated plate, titrated in 3× serial dilutions, and incubated at room temperature for 2 hours. The plate was then washed 6 times with PBS. A 1000× dilution of goat HRP-anti-FLAG pAb (Abcam, Cambridge, UK; Cat. No. Ab1238) was added to the ELISA plate and incubated at room temperature for 1 hour. The ELISA plate was then washed 6 times with phosphate buffered saline with Tween (PBST) and developed with the 3,3′,5,5′-Tetramethylbenzidine (TMB) substrate solution (Pierce, Thermo Fisher Scientific, Rockford, Ill.) according the manufacturer's instructions and reading the optical density at 450 nm (OD450) on a plate reader.

[5] = 37° C.; for Plasma incubated mean adenosine deaminase activity: 0.17 mg/ml in 25% BALB/c mouse plasma; for PBS incubated mean adenosine deaminase activity: 0.17 mg/ml in PBS 0.2% BSA
[6] = adenosine deaminase activity, cited from earlier work
[7] = cited from earlier work
[8] = Stability of ADA activity in plasma; type: in vitro ADME, mouse; conditions: long incubation (e.g., 24 hours) in plasma
Procedure: For therapeutic uses, such as for treatment of tumors or cancers, it is desirable to administer to the subject a dosage of ADA2 that will maintain plasma adenosine deaminase (ADA) activity for a sufficient time for therapeutic effect. […] The plasma stability of any ADA2 described herein, such as a wildtype, variant or conjugate, can be determined by measuring the changes in enzymatic activity and/or other physical properties, before and after incubation in plasma, e.g., ex vivo mammalian plasma.
Stability can be assessed in vitro or in vivo. For example, stability can be tested after exposure to plasma for a desired length of time, which can be empirically determined or selected by a skilled artisan depending on the desired length of time. For example, the incubation time can be at least 1 hour, such as at least 2, 3, 4, 5, 10, 15, 20, 24, 30, 36, 48, 60, 72 hours or more. The protein can be directly administered systemically, such as intravenously, and activity can be assessed. In other examples, the protein can be subject to appropriate incubation conditions in vitro. In one example, the stability of ADA activity of any ADA2 provided herein can be measured after incubation at 37° C., in 25% ex vivo plasma or serum, such as human or non-human plasma or serum, for example, mouse plasma. […]

Molecule: OC[C@H]1O[C@@H](n2cnc3c2N=CNC[C@H]3O)C[C@@H]1O [2′-deoxycoformycin]
- inhibition of ADA2 [1]: potent inhibitors

Molecule: OC[C@H]1O[C@@H](n2cnc3c2N=CNC[C@H]3O)[C@H](O)[C@@H]1O [Coformycin]
- inhibition of ADA1 [2]: potent inhibitors
- inhibition of ADA2 [1]: potent inhibitors

Molecule: CCCCCC[C@H]([C@H](C)O)n1cnc2c(N)ncnc21 [EHNA, (+)-erythro-9-(2-hydroxy-3-nonyl)adenine]
- inhibition of ADA1 [2]: selectively inhibits ADA1
- inhibition of ADA2 [1]: does not inhibit ADA2

B1: WT ADA1: recombinant human adenosine deaminase 1 with Strep-tag, mature SEQ ID NO:66/67 (protein, listed as Homo sapiens)
chain 1: AQTPAFDKPKVELHVHLDGSIKPETILYYGRRRGIALPANTAEGLLNVIGMDKPLTLPDFLAKFDYYMPAIAGCREAIKRIAYEFVEMKAKEGVVYVEVRYSPHLLANSKVEPIPWNQAEGDLTPDEVVALVGQGLQEGERDFGVKARSILCCMRHQPNWSPKVVELCKKYQQQTVVAIDLAGDETIPGSSLLPGHVQAYQEAVKSGIHRTVHAGEVGSAEVVKEAVDILKTERLGHGYHTLEDQALYNRLRQENMHFEICPWSSYLTGAWKPDTEHAVIRLKNDQANYSLNTDDPLIFKSTLDTDYQMTKRDMGFTEEEFKRLNINAAKSSFLPEDEKRELLDLLYKAYGMPPSASAGQNL
chain 2: AQTPAFDKPKVELHVHLDGSIKPETILYYGRRRGIALPANTAEGLLNVIGMDKPLTLPDFLAKFDYYMPAIAGCREAIKRIAYEFVEMKAKEGVVYVEVRYSPHLLANSKVEPIPWNQAEGDLTPDEVVALVGQGLQEGERDFGVKARSILCCMRHQPNWSPKVVELCKKYQQQTVVAIDLAGDETIPGSSLLPGHVQAYQEAVKSGIHRTVHAGEVGSAEVVKEAVDILKTERLGHGYHTLEDQALYNRLRQENMHFEICPWSSYLTGAWKPDTEHAVIRLKNDQANYSLNTDDPLIFKSTLDTDYQMTKRDMGFTEEEFKRLNINAAKSSFLPEDEKRELLDLLYKAYGMPPSASAGQNLSGSGSWSHPQFEK
modifications: Strep-tag; mature ADA1 protein; mature ADA1-linker-Strep
- Average OD450, heparin binding ELISA ([3]; Set 1): 0.07
- Average OD450, heparin binding ELISA ([3]; Set 2): 0.06
- Heparin Binding ELISA Average OD450 ([3]; single and S265N combination variants (Table 34)): −0.02
- Average OD450, heparin binding capture ELISA [4]: <0.02
- Plasma incubated mean adenosine deaminase activity ([5]; 0 hr): 71,663.6 mU/mL
- PBS incubated mean adenosine deaminase activity ([5]; 0 hr): 61,077.0 mU/mL
- Plasma incubated mean adenosine deaminase activity ([5]; 4 hr): 46,772.1 mU/mL
- PBS incubated mean adenosine deaminase activity ([5]; 4 hr): 59,544.8 mU/mL
- activity retained in PBS/BSA control ([5]; 24 hours): greater than 80%
- activity retained after treatment with plasma ([5]; 24 hours, mouse plasma): less than 1%
- Plasma incubated mean adenosine deaminase activity ([5]; 24 hr): 673.6 mU/mL
- PBS incubated mean adenosine deaminase activity ([5]; 24 hr): 50,287.9 mU/mL

B2: ADA1: human adenosine deaminase 1, monomer, SEQ ID NO:12 (protein, listed as Homo sapiens)
chain: MAQTPAFDKPKVELHVHLDGSIKPETILYYGRRRGIALPANTAEGLLNVIGMDKPLTLPDFLAKFDYYMPAIAGCREAIKRIAYEFVEMKAKEGVVYVEVRYSPHLLANSKVEPIPWNQAEGDLTPDEVVALVGQGLQEGERDFGVKARSILCCMRHQPNWSPKVVELCKKYQQQTVVAIDLAGDETIPGSSLLPGHVQAYQEAVKSGIHRTVHAGEVGSAEVVKEAVDILKTERLGHGYHTLEDQALYNRLRQENMHFEICPWSSYLTGAWKPDTEHAVIRLKNDQANYSLNTDDPLIFKSTLDTDYQMTKRDMGFTEEEFKRLNINAAKSSFLPEDEKRELLDLLYKAYGMPPSASAGQNL
modifications: ADA1 protein; ref <300>: PUBLICATION INFORMATION:; ref <308>: DATABASE ACCESSION NUMBER: NCBI NP_000013.2; ref <309>: DATABASE ENTRY DATE: 2014-05-03
- pH optimum [6]: ~7.5
- pH optimum ([6]; listed as ADA′): 7.5
- Km ([7]; for adenosine, wild-type enzyme in humans, read-out: Km): ~52 µM
- Km ([7]; read-out: Km for adenosine): ~100 µM
- stability in plasma [8]: substantially less stable
